Measured values: paper PMC7998030

Assays:
[1] = molecular target: JF646-labeled Mcm2-7 (MCM) hexamer on DNA after incubation with ORC, Cdc6 and ATP (S. cerevisiae) (UniProt P29469); test: single-molecule fluorescence colocalisation on optically trapped DNA (confocal microscopy, bleaching-step counting); bulk incubation of 5 nM ORC, 10 nM Cdc6, 100 nM MCM-Cdt1 with 1 nM 21.2 kbp DNA in 5 mM ATP for 30 min at 30°C, diluted 1000x, injected into the flow cell and imaged, no high-salt wash; all proteins on DNA
[2] = molecular target: JF646-labeled Mcm2-7 (MCM) hexamer on DNA after incubation with ORC, Cdc6 and ATP (S. cerevisiae) (UniProt P29469); test: single-molecule fluorescence colocalisation on optically trapped DNA (confocal microscopy, bleaching-step counting); bulk incubation of 5 nM ORC, 10 nM Cdc6, 100 nM MCM-Cdt1 with 1 nM 21.2 kbp DNA in 5 mM ATP for 30 min at 30°C, then high-salt wash (500 mM NaCl) in the flow cell before imaging; MCM hexamer with MCM hexamer (double hexamer) on DNA

JF646-labeled Mcm2-7 (MCM) hexamer on DNA after incubation with ORC, Cdc6 and ATP, P29469 1-868; P24279 1-971; P30665 1-933; P29496 1-775; P53091 1-1017; P38132 1-845
percent of MCM-only foci with two or more MCMs [1]: 52% | percent of foci with 2 MCM after high-salt wash [2]: 24% | stoichiometry N [2]: 2
